Data from patent publication US20060281073A1.

Biological target: αv integrins on NIH3T3 cells (αvβ3 and αvβ5) (mouse) (UniProt P43406)
Assay: cell-based or functional assay

UniProt P43406, sequence (P43406 whole entry): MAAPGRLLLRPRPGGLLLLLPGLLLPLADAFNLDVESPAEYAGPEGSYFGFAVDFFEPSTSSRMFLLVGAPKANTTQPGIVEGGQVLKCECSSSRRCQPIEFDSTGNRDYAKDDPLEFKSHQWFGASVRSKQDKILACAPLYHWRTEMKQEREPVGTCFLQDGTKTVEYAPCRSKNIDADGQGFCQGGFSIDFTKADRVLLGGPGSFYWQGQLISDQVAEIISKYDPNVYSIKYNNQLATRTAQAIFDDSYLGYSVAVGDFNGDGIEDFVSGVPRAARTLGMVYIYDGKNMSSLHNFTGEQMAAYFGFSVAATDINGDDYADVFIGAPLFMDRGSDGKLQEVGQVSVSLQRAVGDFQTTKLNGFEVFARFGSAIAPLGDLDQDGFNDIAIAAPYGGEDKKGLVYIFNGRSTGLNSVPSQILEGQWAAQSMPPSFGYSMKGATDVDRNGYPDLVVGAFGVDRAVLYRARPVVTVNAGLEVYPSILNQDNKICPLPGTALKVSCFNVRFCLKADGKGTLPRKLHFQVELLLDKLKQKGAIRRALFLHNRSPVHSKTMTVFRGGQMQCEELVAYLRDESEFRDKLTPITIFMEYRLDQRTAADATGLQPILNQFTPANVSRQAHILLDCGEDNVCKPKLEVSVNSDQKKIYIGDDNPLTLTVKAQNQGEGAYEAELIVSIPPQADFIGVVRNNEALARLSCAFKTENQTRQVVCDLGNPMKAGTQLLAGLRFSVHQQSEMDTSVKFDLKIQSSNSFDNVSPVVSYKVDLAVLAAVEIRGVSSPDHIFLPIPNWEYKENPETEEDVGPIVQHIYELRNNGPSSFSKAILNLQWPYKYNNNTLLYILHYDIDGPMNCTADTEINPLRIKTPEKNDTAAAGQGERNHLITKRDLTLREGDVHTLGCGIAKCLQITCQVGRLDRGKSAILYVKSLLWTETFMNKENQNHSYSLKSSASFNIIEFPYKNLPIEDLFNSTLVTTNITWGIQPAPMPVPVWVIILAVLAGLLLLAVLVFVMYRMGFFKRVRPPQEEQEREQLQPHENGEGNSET

## GRGDSP [RGD peptide (GRGDSP)]
  reduction of transduction of Ad5luc-L1 in NIH3T3 cells compared to control RGE peptide: 40 % reduction
  reduction of transduction of Ad5luc-L16 in NIH3T3 cells compared to control RGE peptide: 60 % reduction
  reduction of transduction of Ad5luc-L33 in NIH3T3 cells compared to control RGE peptide: 61 % reduction
